Experimental data published in patent publication US20100035363A1.

Tests used:
[1] = biological target: biotin-labeled RSV-IQN51 (Respiratory Syncytial Virus (F1 part)); assay: time-resolved FRET competition, IQN51-APC/C39-Eu assay; competitor C39-Eu
[2] = biological target: biotin-labeled RSV-IQN57 (Respiratory Syncytial Virus (F1 part)); assay: time-resolved FRET competition, IQN57-APC/C45-Eu assay; competitor C45-Eu

Substance	IC50 [1] [µM]	IC50 [2] [µM]
HIV-T20 (peptide)	> 10	> 10
HIV-C34 (peptide)	> 10	> 10
